Reference: publication PMC6730670

Molecular target: Yn-ABHD5 (UniProt Q9DBL9)
Assay: split reporter

Chain of Yn-ABHD5 (Q9DBL9 whole entry): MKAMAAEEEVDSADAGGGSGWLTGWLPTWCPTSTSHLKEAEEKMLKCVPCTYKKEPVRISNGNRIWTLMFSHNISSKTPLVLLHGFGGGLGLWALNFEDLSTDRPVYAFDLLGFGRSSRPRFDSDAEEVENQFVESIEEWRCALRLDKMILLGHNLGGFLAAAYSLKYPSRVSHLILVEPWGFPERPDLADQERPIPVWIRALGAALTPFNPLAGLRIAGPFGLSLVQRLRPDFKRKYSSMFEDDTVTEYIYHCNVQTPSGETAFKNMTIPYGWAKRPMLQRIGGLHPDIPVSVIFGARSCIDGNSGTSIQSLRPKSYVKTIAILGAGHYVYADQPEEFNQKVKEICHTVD

percent of transfected cells with BiFC: > 90%
Substance: PNPLA3-Yc (from UniProt Q91WW7 1-413) (natural protein)
